By stoichiometry N is commonly meant the number of molecules, sites or subunits per partner or assembly.

Consider two molecules from article PMC12216677, “Structural dynamics of IDR interactions in human SFPQ and implications for liquid–liquid phase separation” (Acta Crystallographica Section D: Structural Biology, 2025).

Data set [1] has as its target T1, full-length SFPQ (splicing factor proline- and glutamine-rich) (Homo sapiens), P23246.
T1 chain: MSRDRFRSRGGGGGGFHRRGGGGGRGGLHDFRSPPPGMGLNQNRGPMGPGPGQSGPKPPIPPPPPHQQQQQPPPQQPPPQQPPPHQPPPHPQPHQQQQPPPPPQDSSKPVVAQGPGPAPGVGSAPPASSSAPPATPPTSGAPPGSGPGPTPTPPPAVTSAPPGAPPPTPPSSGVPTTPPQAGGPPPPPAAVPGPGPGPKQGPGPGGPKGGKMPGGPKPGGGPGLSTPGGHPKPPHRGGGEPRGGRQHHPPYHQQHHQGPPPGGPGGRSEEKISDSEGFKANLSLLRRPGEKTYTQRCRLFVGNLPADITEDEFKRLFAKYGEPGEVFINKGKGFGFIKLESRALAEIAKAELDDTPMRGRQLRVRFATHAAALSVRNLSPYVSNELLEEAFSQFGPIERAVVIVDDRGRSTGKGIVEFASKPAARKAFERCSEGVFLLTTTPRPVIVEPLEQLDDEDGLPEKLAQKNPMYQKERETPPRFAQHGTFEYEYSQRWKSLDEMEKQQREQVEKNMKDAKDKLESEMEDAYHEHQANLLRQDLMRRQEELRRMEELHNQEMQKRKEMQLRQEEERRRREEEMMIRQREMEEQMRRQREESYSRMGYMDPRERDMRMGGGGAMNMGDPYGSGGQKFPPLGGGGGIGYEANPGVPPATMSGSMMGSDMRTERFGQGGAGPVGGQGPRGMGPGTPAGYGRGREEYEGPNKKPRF
Kind of data set: SANS; static cell, 1:20 hSFPQ:dSFPQ at 0.63 mg/ml, no match-out, 150 mM KCl, 1.5% glycerol, 20 mM HEPES, 1 mM DTT pH 7.4 in H2O. The note with it: remark: other sources report otherwise.

In data set [2] the target is T1, full-length SFPQ (splicing factor …). Put plainly: SEC-SAXS; inline SEC-SAXS co-flow, Superdex 200 5/150, 500 mM KNO3, 20 mM HEPES pH 7.4, 5% glycerol, 1 mM DTT, 25 °C; injected at 4.2 mg/ml (full length) or 5 mg/ml (1–598). The note with it: remark: other sources report otherwise. (In general: In gel filtration, larger molecules generally elute earlier.)
Data set [3] concerns the molecule itself. Described as above.
Data set [4] concerns the molecule itself. Put plainly: SEC-SAXS; inline SEC-SAXS co-flow, Superdex 200 5/150, low salt: 150 mM KCl, 20 mM HEPES pH 7.4, 5% glycerol, 5 mM MgCl2, 1 mM DTT, 25 °C; injected at 4.91 mg/ml.

B1: full-length SFPQ (splicing factor proline- and glutamine-rich), P23246 1-707 (natural protein)
chain: T1 chain
Turning to B1, the stoichiometry N in data set [1] and in data set [2] was 2 throughout.

B2: SFPQ residues 1–598 (domain or fragment, Homo sapiens, UniProt P23246 1-598, looked up)
chain: MSRDRFRSRGGGGGGFHRRGGGGGRGGLHDFRSPPPGMGLNQNRGPMGPGPGQSGPKPPIPPPPPHQQQQQPPPQQPPPQQPPPHQPPPHPQPHQQQQPPPPPQDSSKPVVAQGPGPAPGVGSAPPASSSAPPATPPTSGAPPGSGPGPTPTPPPAVTSAPPGAPPPTPPSSGVPTTPPQAGGPPPPPAAVPGPGPGPKQGPGPGGPKGGKMPGGPKPGGGPGLSTPGGHPKPPHRGGGEPRGGRQHHPPYHQQHHQGPPPGGPGGRSEEKISDSEGFKANLSLLRRPGEKTYTQRCRLFVGNLPADITEDEFKRLFAKYGEPGEVFINKGKGFGFIKLESRALAEIAKAELDDTPMRGRQLRVRFATHAAALSVRNLSPYVSNELLEEAFSQFGPIERAVVIVDDRGRSTGKGIVEFASKPAARKAFERCSEGVFLLTTTPRPVIVEPLEQLDDEDGLPEKLAQKNPMYQKERETPPRFAQHGTFEYEYSQRWKSLDEMEKQQREQVEKNMKDAKDKLESEMEDAYHEHQANLLRQDLMRRQEELRRMEELHNQEMQKRKEMQLRQEEERRRREEEMMIRQREMEEQMRRQREESYS
notes: The GFP tag was removed with TEV protease; that the His tag left with it is surmised from the second nickel column
On to B2, for which the “stoichiometry N” value in data set [3] and in data set [4] was 2 each time.
